Consider 2 molecules from publication PMC8228355, “SERS-Based Aptasensor for Rapid Quantitative Detection of SARS-CoV-2”.

In this series the target is RBD of SARS-CoV-2 spike protein (SARS-CoV-2, UniProt P0DTC2 319-541). Description: BLI; ka ([…]; kd ([…]; RBD 80-1200 nM; […]; BLI on streptavidin sensors, buffer and temperature not stated; […]. The note with it: protein: commercial; label: 5'-biotin. A general note: BLI is a label-free optical method that tracks binding on a fibre tip over time.

As a reminder, the Kd is a measure of binding affinity in units of concentration. A high value points to lower affinity. With TTTGGGAGTGCTGGTCCAAGGGCGTTAATGGACA (structured_DNA) [Biotin-RBD-1C-sh], binding was put at a Kd of 330 nM.

B1: Biotin-RBD-1C (structured_DNA)
DNA: CAGCACCGACCTTGTGCTTTGGGAGTGCTGGTCCAAGGGCGTTAATGGACA
As to B1, binding was characterised by a dissociation constant (Kd) of 13 nM.
